Measured values as given in patent US20180344812A1 (Scripps Research, published 2018).
Where a chain is given by its changes, count along the chain named. Bridges are numbered along the chain shown (N, C = ends). Primed or numbered codes have the meaning given here. Where no end group is shown, it is not given here. [ ]: non-standard residue; d: D form. L1″ = C4 bis(bromoacetamide) staple without lipid, joins two Cys through thioethers; L4″ = octadecanedioic acid-PEG-ornithine staple, joins two Cys through thioethers; L2″ = myristic acid-PEG-ornithine staple, joins two Cys through thioethers; L6″ = as L5, made on Rink amide resin, joins two Cys through thioethers; L1 = C4 bis(bromoacetamide) staple without lipid; L4 = octadecanedioic acid-PEG-ornithine staple; L3 = myristic acid-PEG-PEG-ornithine staple; L5 = C18 diacid-Lys-PEG2-ornithine staple; L2 = myristic acid-PEG-ornithine staple; L6 = made as L5 but on Rink amide resin; L11 = not defined here; L12 = not defined here; L13 = not defined here; L7 = not defined here; L8 = not defined here; L9 = not defined here

T1: human Glucagon-like peptide 2 receptor (GLP-2R) (human, UniProt O95838 1-553)
T1 sequence (looked up): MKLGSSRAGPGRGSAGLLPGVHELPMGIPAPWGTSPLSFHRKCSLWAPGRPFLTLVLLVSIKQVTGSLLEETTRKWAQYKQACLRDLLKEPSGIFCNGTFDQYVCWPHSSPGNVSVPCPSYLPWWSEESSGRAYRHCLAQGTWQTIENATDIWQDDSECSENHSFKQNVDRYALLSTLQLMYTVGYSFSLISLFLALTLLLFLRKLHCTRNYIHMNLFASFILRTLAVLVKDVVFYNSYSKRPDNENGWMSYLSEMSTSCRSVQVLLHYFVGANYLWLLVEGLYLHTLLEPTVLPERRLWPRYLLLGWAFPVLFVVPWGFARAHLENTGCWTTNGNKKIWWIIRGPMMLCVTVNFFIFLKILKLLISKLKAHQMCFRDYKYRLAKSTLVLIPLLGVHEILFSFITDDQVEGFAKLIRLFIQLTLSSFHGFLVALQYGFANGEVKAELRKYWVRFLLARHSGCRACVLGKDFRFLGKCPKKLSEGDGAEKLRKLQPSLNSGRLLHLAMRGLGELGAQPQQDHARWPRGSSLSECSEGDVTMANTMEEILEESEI

B1: mTA 53: GLP-2 (D) and L1 (peptide)
peptide: HGDGSFSCEMNTILCALAARDFINWLIQTKITD
modifications: linker 8-15 via L1
B2: mTA 54: GLP-2 (E) and L1 (peptide)
peptide: B1 peptide with C8D, C15D, D21C, Q28C
modifications: linker 21-28 via L1
B3: mTA 46: GLP-2 (A) and L1 (peptide)
peptide: HGDGSFSDEMNTILDNCAARDFICWLIQTKITD
modifications: linker 17-24 via L1
B4: mTA 52: GLP-2 (C) and L1 (peptide)
peptide: B3 peptide with N16C, C17L
modifications: linker 16-24 via L1
B5: mTA 48: GLP-2 (A) and L3 (peptide)
peptide: B3 peptide
modifications: linker 17-24 via L3
B6: mTA 47: GLP-2 (A) and L2 (peptide)
peptide: B3 peptide
modifications: linker 17-24 via L2
B7: mTA 55: GLP-2 (F) and L1 (peptide)
peptide: B1 peptide with C8D, E9C, C15D, A16C
modifications: linker 9-16 via L1
B8: mTA 50: GLP-2 (A) and L5 (peptide)
peptide: B3 peptide
modifications: linker 17-24 via L5
B9: mTA 51: GLP-2 (A) and L6 (peptide)
peptide: B3 peptide
modifications: linker 17-24 via L6
B10: mTA 49: GLP-2 (A) and L4 (peptide)
peptide: B3 peptide
modifications: linker 17-24 via L4
B11: mTA 39: GLP-1/Glucagon (D) and L6 (peptide)
peptide: H[dS]QGTFTSDYSKYLDECAAKEFICWLLNGGPSSGAPPPS
modifications: linker 17-24 via L6
B12: mTA 17: OXM (B) and L4 (peptide)
peptide: H[dS]QGTFTSDYSKYLDECAAKEFICWLMNTKRNRNNIA
modifications: linker 17-24 via L4″
B13: mTA 18: OXM (B) and L5 (peptide)
peptide: H[dS]QGTFTSDYSKYLDECAAKEFICWLMNTKRNRNNIA
modifications: linker 17-24 via L5
B14: mTA 37: GLP-1/Glucagon (D) and L4 (peptide)
peptide: H[dS]QGTFTSDYSKYLDECAAKEFICWLLNGGPSSGAPPPS
modifications: linker 17-24 via L4
B15: mTA 19: OXM (B) and L6 (peptide)
peptide: H[dS]QGTFTSDYSKYLDECAAKEFICWLMNTKRNRNNIA
modifications: linker 17-24 via L6″
B16: mTA 36: GLP-1/Glucagon (C) and L6 (peptide)
peptide: H[dS]QGTFTSDYSKYLDECAAKEFICWLLRAGPSSGAPPPS
modifications: linker 17-24 via L6
B17: mTA 27: GLP-1/Glucagon (A) and L1 (peptide)
peptide: H[dS]QGTFTSDYSKYLDSCAAHDFVCWLLRA
modifications: linker 17-24 via L1
B18: mTA 31: GLP-1/Glucagon (B) and L4 (peptide)
peptide: H[dS]QGTFTSDYSKYLDECAAKEFICWLLRA
modifications: linker 17-24 via L4
B19: mTA 32: GLP-1/Glucagon (B) and L5 (peptide)
peptide: H[dS]QGTFTSDYSKYLDECAAKEFICWLLRA
modifications: linker 17-24 via L5
B20: mTA 21: OXM (B) and L8 (peptide)
peptide: H[dS]QGTFTSDYSKYLDECAAKEFICWLMNTKRNRNNIA
modifications: linker 17-24 via L8; reading uncertain; also: printed as HsQGTFTSDYSKYLDEXAAKEFIXWLMNTKRNRNNIA
B21: mTA 30: GLP-1/Glucagon (B) and L2 (peptide)
peptide: H[dS]QGTFTSDYSKYLDECAAKEFICWLLRA
modifications: linker 17-24 via L2
B22: mTA 38: GLP-1/Glucagon (D) and L5 (peptide)
peptide: H[dS]QGTFTSDYSKYLDECAAKEFICWLLNGGPSSGAPPPS
modifications: linker 17-24 via L5
B23: mTA 16: OXM (B) and L2 (peptide)
peptide: H[dS]QGTFTSDYSKYLDECAAKEFICWLMNTKRNRNNIA
modifications: linker 17-24 via L2″
B24: mTA 20: OXM (B) and L7 (peptide)
peptide: H[dS]QGTFTSDYSKYLDECAAKEFICWLMNTKRNRNNIA
modifications: linker 17-24 via L7; reading uncertain; also: printed as HsQGTFTSDYSKYLDEXAAKEFIXWLMNTKRNRNNIA
B25: mTA 25: OXM (B) and L12 (peptide)
peptide: H[dS]QGTFTSDYSKYLDECAAKEFICWLMNTKRNRNNIA
modifications: linker 17-24 via L12; reading uncertain; also: printed as HsQGTFTSDYSKYLDEXAAKEFIXWLMNTKRNRNNIA
B26: mTA 26: OXM (B) and L13 (peptide)
peptide: H[dS]QGTFTSDYSKYLDECAAKEFICWLMNTKRNRNNIA
modifications: linker 17-24 via L13; reading uncertain; also: printed as HsQGTFTSDYSKYLDEXAAKEFIXWLMNTKRNRNNIA
B27: mTA 22: OXM (B) and L9 (peptide)
peptide: H[dS]QGTFTSDYSKYLDECAAKEFICWLMNTKRNRNNIA
modifications: linker 17-24 via L9; not fully specified; printed as HsQGTFTSDYSKYLDEXAAKEFIXWLMNTKRNRNNIA; reading uncertain
B28: mTA 34: GLP-1/Glucagon (C) and L4 (peptide)
peptide: H[dS]QGTFTSDYSKYLDECAAKEFICWLLRAGPSSGAPPPS
modifications: linker 17-24 via L4
B29: mTA 33: GLP-1/Glucagon (B) and L6 (peptide)
peptide: H[dS]QGTFTSDYSKYLDECAAKEFICWLLRA
modifications: linker 17-24 via L6
B30: mTA 28: GLP-1/Glucagon (A) and L2 (peptide)
peptide: H[dS]QGTFTSDYSKYLDSCAAHDFVCWLLRA
modifications: linker 17-24 via L2
B31: mTA 29: GLP-1/Glucagon (B) and L1 (peptide)
peptide: H[dS]QGTFTSDYSKYLDECAAKEFICWLLRA
modifications: linker 17-24 via L1
B32: mTA 15: OXM (B) and L1 (peptide)
peptide: H[dS]QGTFTSDYSKYLDECAAKEFICWLMNTKRNRNNIA
modifications: linker 17-24 via L1″
B33: mTA 24: OXM (B) and L11 (peptide)
peptide: H[dS]QGTFTSDYSKYLDECAAKEFICWLMNTKRNRNNIA
modifications: linker 17-24 via L11; reading uncertain; also: printed as HsQGTFTSDYSKYLDEXAAKEFIXWLMNTKRNRNNIA
B34: mTA 35: GLP-1/Glucagon (C) and L5 (peptide)
peptide: H[dS]QGTFTSDYSKYLDECAAKEFICWLLRAGPSSGAPPPS
modifications: linker 17-24 via L5

Each binder was assayed against T1, human Glucagon-like peptide 2 receptor … (assay: cell-based or functional assay).

First: B1
Second: B2
The “EC50, CRE-luciferase reporter in HEK293-GLP-2R-CRE cells” value (from here on “EC50 … in HEK293-GLP-2R-CRE cells”) of the first is 110-fold higher: 14300 pM for the first, 130 pM for the second.

First: B3
Second: B4
The “EC50 … in HEK293-GLP-2R-CRE cells” value of the first is 120-fold lower: 45 pM for the first, 5600 pM for the second.

B5 and B6 are within 1.5-fold of each other in “EC50 … in HEK293-GLP-2R-CRE cells” value: 45 pM for the first, 41 pM for the second.

Going from B7 to B8, the “EC50 … in HEK293-GLP-2R-CRE cells” value rises from 64 pM to 6400 pM (100-fold).

Compared with B9, B10 is 2.9-fold lower in “EC50 … in HEK293-GLP-2R-CRE cells” value: 700 pM for the first, 241 pM for the second.

These binders were tested against human glucagon-like peptide 1 receptor (GLP-1R) (human, UniProt P43220 24-463) (assay: cell-based or functional assay).

First: B11
Second: B12
The “EC50, CRE-luciferase reporter in HEK293-GLP-1R-CRE cells” value (“EC50 … in HEK293-GLP-1R-CRE cells” below) of the first is 50-fold lower: 40 pM for the first, 2000 pM for the second.

First: B13
Second: B14
The “EC50 … in HEK293-GLP-1R-CRE cells” value of the first is 6.7-fold higher: 200 pM for the first, 30 pM for the second.

First: B15
Second: B16
The “EC50 … in HEK293-GLP-1R-CRE cells” value of the first is 1.5-fold lower: 200 pM for the first, 300 pM for the second.

Going from B17 to B18, the “EC50 … in HEK293-GLP-1R-CRE cells” value falls from 200 pM to 30 pM (6.7-fold).

First: B19
Second: B20
The “EC50 … in HEK293-GLP-1R-CRE cells” value of the first is 2.5-fold higher: 300 pM for the first, 120 pM for the second.

B21 and B22 are within 1.5-fold of each other in “EC50 … in HEK293-GLP-1R-CRE cells” value: 30 pM for the first, 40 pM for the second.

Compared with B23, B24 is 420-fold higher in “EC50 … in HEK293-GLP-1R-CRE cells” value: 40 pM for the first, 17000 pM for the second.

Going from B25 to B26, the “EC50 … in HEK293-GLP-1R-CRE cells” value falls from 100 pM to 50 pM (2-fold).

Compared with B27, B28 is 1000-fold lower in “EC50 … in HEK293-GLP-1R-CRE cells” value: 40000 pM for the first, 40 pM for the second.

Going from B29 to B30, the “EC50 … in HEK293-GLP-1R-CRE cells” value rises from 50 pM to 100 pM (2-fold).

B31 and B32 are the same in “EC50 … in HEK293-GLP-1R-CRE cells” value: 30 pM for the first, 30 pM for the second.

First: B33
Second: B34
The “EC50 … in HEK293-GLP-1R-CRE cells” value of the first is 2.5-fold lower: 200 pM for the first, 500 pM for the second.

What follows are binders tested against human glucagon receptor (GCGR) (human, UniProt P47871 26-477) (assay: cell-based or functional assay).
human glucagon receptor (GCGR), sequence (P47871 26-477): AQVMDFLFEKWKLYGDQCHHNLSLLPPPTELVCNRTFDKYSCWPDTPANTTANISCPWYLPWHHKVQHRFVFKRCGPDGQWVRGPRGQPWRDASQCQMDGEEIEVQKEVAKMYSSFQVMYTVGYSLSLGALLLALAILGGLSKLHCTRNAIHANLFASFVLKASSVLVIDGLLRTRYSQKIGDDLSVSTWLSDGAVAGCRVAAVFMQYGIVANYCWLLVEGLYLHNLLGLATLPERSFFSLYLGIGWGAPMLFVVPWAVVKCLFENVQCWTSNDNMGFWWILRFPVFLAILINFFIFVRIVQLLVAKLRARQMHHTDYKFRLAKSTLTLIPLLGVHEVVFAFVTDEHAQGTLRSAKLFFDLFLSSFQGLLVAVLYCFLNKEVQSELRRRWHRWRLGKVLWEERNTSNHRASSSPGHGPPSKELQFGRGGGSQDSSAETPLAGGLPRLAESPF

Compared with B11, B12 is 10-fold higher in “EC50, CRE-luciferase reporter in HEK293-GCGR-CRE cells” value (shortened to “EC50 … in HEK293-GCGR-CRE cells”): 300 pM for the first, 3000 pM for the second.

First: B14
Second: B16
The “EC50 … in HEK293-GCGR-CRE cells” value of the first is 2.5-fold lower: 200 pM for the first, 500 pM for the second.

Going from B17 to B18, the “EC50 … in HEK293-GCGR-CRE cells” value rises from 40 pM to 120 pM (3-fold).

B19 and B20 are within 1.5-fold of each other in “EC50 … in HEK293-GCGR-CRE cells” value: 1000 pM for the first, 700 pM for the second.

Compared with B21, B22 is 8-fold higher in “EC50 … in HEK293-GCGR-CRE cells” value: 50 pM for the first, 400 pM for the second.

Compared with B23, B24 is 18-fold higher in “EC50 … in HEK293-GCGR-CRE cells” value: 300 pM for the first, 5400 pM for the second.

B25 and B26 are the same in “EC50 … in HEK293-GCGR-CRE cells” value: 500 pM for the first, 500 pM for the second.

Going from B27 to B28, the “EC50 … in HEK293-GCGR-CRE cells” value falls from 14000 pM to 400 pM (35-fold).

Compared with B29, B30 is 4-fold lower in “EC50 … in HEK293-GCGR-CRE cells” value: 400 pM for the first, 100 pM for the second.

First: B31
Second: B32
The “EC50 … in HEK293-GCGR-CRE cells” value of the first is 6.7-fold lower: 30 pM for the first, 200 pM for the second.

Compared with B33, B34 is 3-fold lower in “EC50 … in HEK293-GCGR-CRE cells” value: 3000 pM for the first, 1000 pM for the second.
